Measurements from patent US20230390369A1.

Molecular target: human PD-L1 on antigen-presenting cells of the Promega J1250 assay (human) (UniProt Q9NZQ7)
Assay: cell-based or functional assay

Luminescence (RLU) at 0.1 µg/mL: 241000 RLU
Luminescence (RLU) at 20 µg/mL: 1.47e+06 RLU
Substance: atezolizumab (antibody)
